Source: the nanobody polyreactivity screen of Harvey et al. (2022)

Experiment: yeast display, Sf9 membrane polyspecificity reagent, FACS + sequencing; frameworks hold sequencing errors
In short: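 Galactose-induced (36–48 hours) yeast carrying a synthetic nanobody display library were exposed to 10% biotinylated, detergent-solubilized Sf9 membrane reagent at 4 °C for 1 hour. FACS followed streptavidin microbead enrichment, using low and high (top ~1%) gates for expression (anti-HA) and reagent binding (streptavidin). Colony PCR, MiSeq 2 × 250 sequencing and CDR-length filtering followed. Labels for polyreactivity reflect the gate of origin.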

Row | Sequence | polyreactivity (PSR sort gate)
1 | QVQLVESGGGSVQAGGSLRLSCAASGRTFVFNAMGWYRQAPGKESELVAGISGSGGSTYYAESVKGRFTISRDNAKNNVYLQMNSLKPEDTAVYYCANTFPRKELDQESVSGLGYWGQGTQVTVSS | low polyreactivity
2 | QVQLVESGGGSVQAGGSLRLSCAASGRTFYGYAMGWYRQAPGKERELGASISRDGSTNYADSVKGRFTISRDNAKNTVYLQMTSLKPEDTAVYYCAADIWYYRYPIYYYSYDYWGQGTQVNVSS | low polyreactivity
3 | QVQLVESGGGSVQAGGSLRLSCAASGSIFAQYTMGWYRQAPGKERELVAVISINGVSTYYADSVKGRFTISRDNAKNTVYLQMNSLKPEDTAVYYCNAGISPYEALGYWGQGTQVTVSS | low polyreactivity
4 | QVQLVESGGGSVQAGGSLRLSCAASGSTFRYYAMGWYRQAPGKERELVARITSRAGRTYYADSVKGRFTISRDNAKNTVYLQMNSLKPEDTAVYYCNTRDFSGYVHALSLYDYWGQGTQVTVSS | high polyreactivity
5 | QVQLVESGGGSVQAGGSLRLSCSASGIIFWYYTMGRNRQAPGKERELVAAISCSSGITYYADSVKGRFTISRDNSKNTVYLQMNSLKPEDTAVYYCAARKFFWRSNYDYWGQGTQVTVSS | low polyreactivity
6 | QVQLVESGGGVVHAGGSLRLSCAASGRIFRKYAMGWYRQAPGKESEFVAAITWSGGSTYYADSVKGRFTISRDNAKNTVYLQMNSLKPEDTAVYYCNAENGYSWDVFSDYWGQGTQVTVSS | low polyreactivity
7 | QVQLVESGGGVVQAGCSLRISCAASGIFRKYAMGWYRQAPGKERELVAAITWGGGRTYYADSVKGRFTISRDNAKNTVYFQMNSLKPEDTAVYYCAAAKTGRGRGTTGYGYCGQGTQVTVSS | high polyreactivity
8 | QVQLVESGGGVVQAGCSLRLSCAASGFTFRTNAMGWYRQAPGIEREFVAAISWSGGSTYYADSVKGRFTISRDNAKNTVYLQMNSLKPEDTAVYYCNADPFHWYYTNMYYWGQGTQVTVSS | high polyreactivity
9 | QVQLVESGGGVVQAGGRLGLSCAASGSTFSQNPMGWYRQAPGKERELVASISSGGSTHYADSVKGRFTISRDNAKNTVYLQMNSLKPEDTAVYYCTTDLPNYVPFIVVEAYNYWGQGTQVTVSS | low polyreactivity
10 | QVQLVESGGGVVQAGGRLRLSCAASGSIFTYYAMGWYRQAPGKERELVAAISYGGGSTYYADSVKGRFTISRDTAKNTVYLQMNSLKPEDTAVYYCNRVVGVKYGYWGQGTQVTVSS | high polyreactivity
11 | QVQLVESGGGVVQAGGSLLLSCAASGRIFWYYAMGWYRQAHGKERELVATITRGGNTYFADSVKGRFTISRDNAKNTVYLQMNSLKPEDNAVYYCAASQRYSVIYYGFSEYDYWGQGTQVTVSS | high polyreactivity
12 | QVQLVESGGGVVQAGGSLRISCAASGSTFGFNAMGWYRQAPGKERELVAAINNSGDSTYYADSVKGRFTISRDNAKNTVYLQMNSLKPEDTAVYYCAAPYLGRYYKNGYWGQGTQVTVSS | low polyreactivity
13 | QVQLVESGGGVVQAGGSLRLICAASGSTFYINTMGWYRPAPGKERELVAAISWTGGRTYYADSVKGRFTISRDNAKNTVYLQLNSLKPEDTAVYYCAAYYNIPDRRRVGYDYWGQGTQVTVSS | high polyreactivity
14 | QVQLVESGGGVVQAGGSLRLSCAASGITFEYNAMGWYRQAPGKERELVAAISLSSGSTYYADSVKGRFTISRDNAKNTVYLQMNCLKPEDTAVYYCNADWQSYGYLWHSSLYYYWGQGTQVTVSS | low polyreactivity
15 | QVQLVESGGGVVQAGGSLRLSCAASGMGWYRQAPGKERELVATITTGGTYADSVKGRFTISRDNAKNTVYLQMNSLKPEDTAVYYCAADGLGSVYYLRYNYWGQGTQVTVSS | low polyreactivity
16 | QVQLVESGGGVVQAGGSLRLSCAASGRIFDIYDMGWYRQAPGKERELVAAITSGRNTYYADSVKGRFTISRDNAKNTVYLQMNSLKPEDTAVSYCAAYSYPPLLWSYDYWGQGTQVTVSS | low polyreactivity
17 | QVQLVESGGGVVQAGGSLRLSCAASGRIFERNAMGSYRQSPVKERELVARITSGGGTYYADSVKGRFTISRDNAKNTVYLQMNSLKPEDSAVYYSAVQYLYRKYRRYDYWGLGTQVTVSS | high polyreactivity
18 | QVQLVESGGGVVQAGGSLRLSCAASGRIFGYYAMGWYRQAPGTERELVAVISSGGSTYADSVKGRFTISRDNAKNPVYLQMNSLKPEDTAVYYCAARHYWSSYRTSRSRYDYWGQGTQVTVSS | high polyreactivity
19 | QVQLVESGGGVVQAGGSLRLSCAASGRIFNWYAMGWYRQAPGKEREFVAAINWNGDSTHYADSVKGRFTISRDNAKNTVYLLMNSLKPEDTAVYYCNARVFVTRSYYWGQGTQVNVSS | low polyreactivity
20 | QVQLVESGGGVVQAGGSLRLSCAASGRILRGYALGWYRPAPGTERELVAAITWRGGSTYYADSVKGRFTISRDNAKNTVYLQMNSLKPEDTAVYYCAADRAYRYEMDYWGQGTQVTVSS | high polyreactivity

Row | Sequence | polyreactivity (PSR sort gate)
21 | QVQLVESGGGVVQAGGSLRLSCAASGSIFDPYAMGWYRHARGKERELVAALNSDGSTNYADSVKGRFTISRDNAKNTDYLQLNSLKPEDTAVYYCAARTFTLRGDDSWGQGSQVTVSS | low polyreactivity
22 | QVQLVESGGGVVQAGGSLRLSCAASGSIFPENARGWYRQAPGKERELVAAITSSDSSTYYADSVKGRFTISRDNAKNTVYLQMNSLKPEDTAVYYCAAYRVGFRFREYYWGLGTQVTVSS | low polyreactivity
23 | QVQLVESGGGVVQAGGSLRLSCAASGSIFPYNAMGWYRPAPGKERELVAVITSSGGSTYYADSVKGRFTISRDNAKNTVYLQMNSLKPEDTAVYYVAARGYNYYFGGYDYWGQGTQVTVSS | low polyreactivity
24 | QVQLVESGGGVVQAGGSLRLSCAASGSPFGFYTMGGYRQAPGKERELVAAISWSTGRTYYADSVKGRFTISRDKAKNTVDLQMNSLKPEDTAVYYCAADYYWKLFHEPPAVYDYDYWGQGTQVTVSS | low polyreactivity
25 | QVQLVESGGGVVQAGGSLRLSCAASGSTFRPYAMGWYRQAPGKERELVAAITFNGDTYADSVKGRFTISRDNAKNTVYLQMNSLKPEDTAVYYCAARNWYYYLRPWTSVGGYYWGQGTQVNVSS | high polyreactivity
26 | QVQLVESGGGVVQAGGSLRLSCAASGSTFYAYAMGWYRQAPGKERELVAGISKRVGRTYYADSVKGRFTISRDNAKNTVYLQRNSLKPEDTAVYYCAAQFYLFYEYEYWGQGTQVTVSS | high polyreactivity
27 | QVQLVESGGGVVQAGGSLRLSCAASGSTFYPYALGWYRQAPGKERELVAGITVIDGSTYYADSVKGRFTISRDNAKNTVYLQMNSLKPEDTAVYYCAVDAPNQVQEYGYWGQGTQVTVSS | low polyreactivity
28 | QVQLVESGGGVVQAGGSLRLSCAASGSTLRDYVMGWYRQAPGKERELVAAITSRVDDTYYADSVKGRFTISRDNAKNNVYLEMNRLKPEDTAVYYCAADYSVTLRIGGYYWFYAFDYWGQGTQVTVSS | low polyreactivity
29 | QVQLVESGGGVVQAGGSLRLSCAASGTTFSWYAMGGYRQAPGKERVLVAAISSGGSTNYADSVKGRFTISRDNAKNTVYLQMNSLKPEDTAVYYCAAVWSRYLISYSTGWWFEYWGQGTQVTVSS | low polyreactivity
30 | QVQLVESGGGVVQAGGSLRLSCAATGFTFAANTKGWYRQPPGKERELVADISGRGDRTSYADSVKGRFTISRDNAKYTVYLQINSLKPEDTAVYYCAVDIFYYSNVHYYYWGQGTQVTVSS | low polyreactivity
31 | QVQLVESGGGVVQAGGSLRLSCAATGSTFYSYAMGWYRQAPGKEREFVASITRSGVRTYYADSVKGRFTISRDNAKNTVYLQMNSLKPDDTAFYYCAAERYYFPRSYRYGYWGQGTQVTVSS | low polyreactivity
32 | QVQLVESGGGVVQAGGSLRLSCAGSGFTFIYYAMGWYRQAPGTERELVAAITTSRGRTDSADSVKGRVTISRDNAKNTVYLQMNSLKPEDTAVYYCNAVVYTKYYFIPWYPYDYWGHGTQVTVSS | high polyreactivity
33 | QVQLVESGGGVVQAGGSLRLSCASSGRTFSRYTMGWYRQAPGKERELVAVITASGTSTYYADSVKGRFTISRDNAKYTVYLQMISQKPEDTAVYYCAAYYPTYYRYSSLTMNYWGQGTQVTVSS | high polyreactivity
34 | QVQLVESGGLLVQAGGSLRLSCAASGSTFYYNDMGWYRQAPGKEREFVAAISSRGGSTYDADSVKGRFTISRDNAKNTVYLQMNSLKPEDTAVYYCAAKDRHRYDWGQGTQVTVSS | high polyreactivity
35 | QVQLVESGGLLVQAGGSLRLTCAASGSTFGRNAMGWYRQATGKERQLVAAITASGGTTYYADSVKGRFTISRDNAKNTVYLHMNSLKPEDTAVYDCARAGHFSFKYDYWGQGTQVTVSS | low polyreactivity
36 | QVQLVESGGRIVQAGGSLRLSCAASGIIFYLYTMGWYRQAPGKERQFVADISSGTTTYYADSVKGRFTISRDNAKNTVYLQMNSLKPADSAVYYCAAQLFRELYWGQGTQVTVSS | high polyreactivity
37 | QVQLVESGGRKVQAGGSLRLICAASGSIFYAYTMGRYRQAPGKERELSTYADSVKGRFTISRDNAKNTVYLQMNSLKPEDTAVYYCNARFYKKTLSYRVKYRMEYWGQGTQVTVSS | low polyreactivity
38 | QVQLVESGGRLFQAGGSLRLSCAASGRNFCRYVMGWYRQAPGKERELVATISSGGSTNYADSVKGRFTISRDNAKNTVYLQMNSMKTEVTAVYYSAAYIYDGFWVYPYYPYDYWGQGTQVTVSS | low polyreactivity
39 | QVQLVESGGRLGQAGGSLRLRCAASGYNFGTYDMGWYRPAPGKERELVAAISIGGSTNYADSVKGRFTISRDNAKNTVYLQMNSLKPEDTAVYYCAAEVNVGTLLLSVIVEDGDYWGQGTEVTVSS | low polyreactivity
40 | QVQLVESGGRLVKAGGSLRLSCPASGRIFADYAMGWYRQAPGKESELVADIRRSGGRTYYADSVKGRFTISRDNAKNTVYIQMNSLKPEDTAVYYCATDYGSWGDYSGNYDYWGQGTQVTVSS | low polyreactivity
